Numbering of substitutions follows the chain as printed. One block for each binder: values may come before it.
Biological target: human claudin 18.2 (CLDN18.2) (human)
Test: cell-based or functional assay

Fluorescence, pHAb internalization on MKN45-CLDN18.2 cells, 20 nM antibody, normalized by DAR: 21100
Fluorescence, pHAb internalization on MKN45-CLDN18.2 cells, 100 nM antibody, normalized by DAR: 45100
B1: 20F1E10 chimeric antibody (antibody, V domains shown)
VH: QIQLVQSGPELKKPGETVKISCKASGYTFTKYGMNWVRQAPGKGLKWMGWISTNTGEPTYAEEFKGRFAFSLETSASTAFLQINNLKNEDTATYFCARLVRGNSFDFWGQGITLTVSS
VL: DIVMTQSPSSLTVTAGEKVTMSCKSSQSLFNSGNQRNYLTWYQQKPGQPPKLLIYWASTRESGVPDRFTGSGSGTDFILTITKVQAEDLAVYYCQNVYSYPLTFGAGTKLELK

Fluorescence, pHAb internalization on MKN45-CLDN18.2 cells, 20 nM antibody, normalized by DAR: 21400
Fluorescence, pHAb internalization on MKN45-CLDN18.2 cells, 100 nM antibody, normalized by DAR: 41700
B3: 116A8B7 chimeric antibody (antibody, V domains shown)
VH: EVQLQQSGPELVKPGASVKMSCKSSGYTFTGFLMHWVKQKPGQGLEWIGYINPYNDGTKYSEKFKGKATLTSDKSSSTAYMELSSLTSDDSAVYYCGRLDYGNAMDYWGQGTSVTVSS
VL: B1 VL with S22R, K24R, S26T, I78T, T82S, K83S, V97A, S99Y, A106V, L112R

Fluorescence, pHAb internalization on MKN45-CLDN18.2 cells, 20 nM antibody, normalized by DAR: 19700
Fluorescence, pHAb internalization on MKN45-CLDN18.2 cells, 100 nM antibody, normalized by DAR: 29100
B4: 85H12E8 chimeric antibody (antibody, V domains shown)
VH: QVQLKESGPGLVAPSQSLSITCTVSGFSLSNYGVSWVRQPPGKGLEWLGVIWAGGNTNYNSALMSRLRISKDNSKSQVFLKMNSLQTDDTARYYCARHGYGKGNAMDNWGQGTSVTVSS
VL: DIVMTQSPSSLTVTAGEKVTMNCKSSQSLLNSGNQRNYLSWYQQEPGQPPKLLIYWASTRESGVPDRFTGSGSGTDFTLTISNIQAEDLALYFCQNAYFYPFTFGSGTKLEIK

Fluorescence, pHAb internalization on MKN45-CLDN18.2 cells, 20 nM antibody, normalized by DAR: 18400
Fluorescence, pHAb internalization on MKN45-CLDN18.2 cells, 100 nM antibody, normalized by DAR: 26100
B9: 44F6B11 chimeric antibody (antibody, V domains shown)
VH: EVQLVESGGDLVKPGGSLKLSCAASGFTFSNYGMSWVRQTPDKRLEWVATFSYGDSHNYYSDSVKGRFTISRDIAKDALYLQMSSLRSEDTAIYYCARFGRGNTMDYWGQGTSVTVSL
VL: DIVMTQSPSSLTVTAGEKVIMSCKSNQSLLNSGNQKKYLTWYQQKPGQSPKLLIYWASTRESGVPDRFTGSESGTDFTLTISSVRAEDLAVYYCQNGYSYPFTFGSGTKLEMK

Fluorescence, pHAb internalization on MKN45-CLDN18.2 cells, 20 nM antibody, normalized by DAR: 19900
Fluorescence, pHAb internalization on MKN45-CLDN18.2 cells, 100 nM antibody, normalized by DAR: 28700
B13: 56E8F10F4 chimeric antibody (antibody, V domains shown)
VH: DVQLVESGGGLVQPGGSRKLSCTASGFTFNSFGMNWVRQAPEKGLEWVAFISGGSNTIHYLDTVKGRFTISRDNPKNTLFLQMTSLRSEDTAMYYCTRLALGNAMDYWGQGTSVIVSS
VL: DIVMTQSPSSLTVTAGEKVTMSCKSSQSLLNSGNQKNYLTWYQQKPGQPPKLLIYWASTRESGVPDRFTGSGSGTYFTLTISSVQAADLAVYYCQNDYYFPFTFGSGTKLEIK

Fluorescence, pHAb internalization on MKN45-CLDN18.2 cells, 20 nM antibody, normalized by DAR: 18600
Fluorescence, pHAb internalization on MKN45-CLDN18.2 cells, 100 nM antibody, normalized by DAR: 33100
B14: 58G2C2 chimeric antibody (antibody, V domains shown)
VH: QVHLQQSGAEVVRPGTSVKVSCKASGYAFTNYLIEWIKKRPGQGLEWVGVINPGRSGTNYNEKFKGKATLTADKSSSTAYMQLSSLTSDDSAVYFCARTRYGGNAMDYWGQGTSVTVSS
VL: B13 VL with K51T, Y55F, S58F, Y76D, S82N, A87E, D97S, Y99S, F100Y

Fluorescence, pHAb internalization on MKN45-CLDN18.2 cells, 20 nM antibody, normalized by DAR: 9600
Fluorescence, pHAb internalization on MKN45-CLDN18.2 cells, 100 nM antibody, normalized by DAR: 35500
B15: 10G7G11 chimeric antibody (antibody, V domains shown)
VH: QVQLKESGPGLVAPSQSLSITCTISGFSLNTYGVHWVRQPPGKGLEWLVVMLSDGNTVYNSSLKSRLSLTKDNSKSQLLLKMNSLQTDDTAIYYCARHKAYGNAMDYWGQGTSVTVSS
VL: B13 VL with S22T, L30F, K36R, Q44R, I81V, A87E, D97A, I112K

Fluorescence, pHAb internalization on MKN45-CLDN18.2 cells, 20 nM antibody, normalized by DAR: 19400
Fluorescence, pHAb internalization on MKN45-CLDN18.2 cells, 100 nM antibody, normalized by DAR: 33200
B16: 15C2B7 chimeric antibody (antibody, V domains shown)
VH: QIQLVQSGPELRKPGETVKISCKASGYTFTNYGMNWVKQAPGKGLKWMAWINANTGEPTYAEEFKGRFAFSLETSARSAYLQINSLKNEDTATYFCARLTRGNSFDYWGQGTTLTVSS
VL: B13 VL with E17G, M21V, Y76D, A86T, A87E, D97N, F102L, S106A, I112L

Fluorescence, pHAb internalization on MKN45-CLDN18.2 cells, 20 nM antibody, normalized by DAR: 16200
Fluorescence, pHAb internalization on MKN45-CLDN18.2 cells, 100 nM antibody, normalized by DAR: 29100
B17: 78C10B6G4 chimeric antibody (antibody, V domains shown)
VH: QVQLKESGPGLVAPSQSLSITCTVSGFSLINYGVSWVRQPPGKGLEWLGVIRGDGNTNYQSALRSRLSIRKDTSKSQVFLKLNSVHTDGTATYYCAKVGRGNAMDHWGQGISVIVSS
VL: DIVMTQSPSSLTVTAGEKVTMSCKSSQSLLNSGNQKNYLTWYQQRPGQPPKLLIYRASSRESGVPVRFTGSGSGTDFTLTISSVQAEDLAVYYCQNDYIYPYTFGGGTKLEMN

Fluorescence, pHAb internalization on MKN45-CLDN18.2 cells, 20 nM antibody, normalized by DAR: 12000
Fluorescence, pHAb internalization on MKN45-CLDN18.2 cells, 100 nM antibody, normalized by DAR: 31300
B18: 103A10B2 chimeric antibody (antibody, V domains shown)
VH: QVQLKESGPGLVAPSQSLSITCTVSGLSLTSFGVHWIRQPPGKGLEWLGVIWAGGSTNYNSALMSRLSISKDNSKSQVYLKMHSLQTDDTAMYYCARSLYGNSFDYWGQGTALTVSS
VL: DIVMTQSPSSLTVTPGEKVTMSCRSSMSLFNSGNQKSYLSWYHQKPGQPPKLLIYWASTRDSGVPVRFTGSGSGTDFTLTISSVQAEDLAVYYCHNDYIYPLTFGAGTKLELK

The remaining lines, values behind:

B2: 110C12B6 chimeric antibody (antibody, V domains shown)
VH: B3 VH
VL: B1 VL with S22R, K24R, S26T, I78T, T82S, K83S, V97A, S99Y, A106V, L112R
Fluorescence, pHAb internalization on MKN45-CLDN18.2 cells, 20 nM antibody, normalized by DAR: 19300
Fluorescence, pHAb internalization on MKN45-CLDN18.2 cells, 100 nM antibody, normalized by DAR: 40100

B5: 65G8B8 chimeric antibody (antibody, V domains shown)
VH: QVQLKESGPGLVAPSQSLSITCTVSGFSLTSYGVSWVRQPPGKGLEWLGVIWGDGNTIYHSALKSRLSISRDNSKRQVFLKVNSLQIDDTATYYCAKQGLYGHAMDYWGQGTSVIVSS
VL: DIMMTQSPSSLTVTTGEKVTLTCKSSQSLLNSGNLKNYLTWYQQKPGHPPKLLIYWASTRESGVPVRFTGSGSGTDFTLTISSVQAEDLTVYYCQNVYIYPFTFGSGTKLEMR
Fluorescence, pHAb internalization on MKN45-CLDN18.2 cells, 20 nM antibody, normalized by DAR: 15100
Fluorescence, pHAb internalization on MKN45-CLDN18.2 cells, 100 nM antibody, normalized by DAR: 20500

B6: 103F4D4 chimeric antibody (antibody, V domains shown)
VH: QVQLQQSGAELARPGASVKMSCKASGYTFPTYSIHWLKQGPGQGLEWIGYINPSTIYTNYNQKFKYKATLTADKSSSTAYIQLSSLTSDDSAVYYCAREGYGRGNAMDYWGQGTSVTVSS
VL: DIVMTQSPSSQTVTAGEKVTLSCRSSQSLLNGGNQKNYLTWYQQKPGQPPKLLIYWASTRESGVPDRFTGSGSGTYFTFTISSVQAEDLAVYYCQNAYFYPFTFGAGTKLELK
Fluorescence, pHAb internalization on MKN45-CLDN18.2 cells, 20 nM antibody, normalized by DAR: 31200
Fluorescence, pHAb internalization on MKN45-CLDN18.2 cells, 100 nM antibody, normalized by DAR: 49100

B7: 113G12E5E6 chimeric antibody (antibody, V domains shown)
VH: QVQLKQSGPGLVQPSQSLSITCTVSDFSLTKYGVHWFRQSPGKGLEWLGVIWTGGNTDYNPALIPRLSFRKDNSKSQVFFKMNSLQSSDTAVYYCARNGYYGNAMDYWGQGTSVTVSS
VL: DIVMTQSPSSLTVTAGERVTMSCKPSQSLLNSGNQKNYLAWYQQKPGQPPKLLLYWASTRESGVPDRFKGSGSGTDFTLTISSVQAEDLAVYYCQNAYFYPCTFGGGTKLEMK
Fluorescence, pHAb internalization on MKN45-CLDN18.2 cells, 20 nM antibody, normalized by DAR: 11000
Fluorescence, pHAb internalization on MKN45-CLDN18.2 cells, 100 nM antibody, normalized by DAR: 28900

B8: 105F7G12 chimeric antibody (antibody, V domains shown)
VH: B7 VH
VL: B7 VL with P25S
Fluorescence, pHAb internalization on MKN45-CLDN18.2 cells, 20 nM antibody, normalized by DAR: 14800
Fluorescence, pHAb internalization on MKN45-CLDN18.2 cells, 100 nM antibody, normalized by DAR: 43100

B10: 119G11D9 chimeric antibody (antibody, V domains shown)
VH: B3 VH with S24A, Y80F, G97A
VL: DIVMTQSPSSLTVTAGERVTMRCRSTQSLFNSGNQKNYLTWYQQKPGQPPKLLIYWASTRESGVPDRFTGGGSGTDFTLTISSVQAEDLAVYYCQNAYYYPLTFGAGTKLERK
Fluorescence, pHAb internalization on MKN45-CLDN18.2 cells, 20 nM antibody, normalized by DAR: 21400
Fluorescence, pHAb internalization on MKN45-CLDN18.2 cells, 100 nM antibody, normalized by DAR: 34000

B11: 84E9E12 chimeric antibody (antibody, V domains shown)
VH: DVQLQESGPGLVKPSQSLSLSCSVTGYSITSGYFWTWFRQFPGNKLEWMGYISYDGSNNYNPSLKNRISITRDTSKNQFFLKLNSVTTEDTATYYCASFRFFAYWGQGTLVTVSA
VL: DIVMTQSPSSLTVTTGEKVTMSCKSSQSVFNSGNQKNYLTWYQQKPGQPPKLLVYWASTRESGVPARFTGSGSGTVFTLTISSVQAEDLAVYYCQNDYYFPLTFGAGTRLELK
Fluorescence, pHAb internalization on MKN45-CLDN18.2 cells, 20 nM antibody, normalized by DAR: 18700
Fluorescence, pHAb internalization on MKN45-CLDN18.2 cells, 100 nM antibody, normalized by DAR: 35100

B12: 101C4F12 chimeric antibody (antibody, V domains shown)
VH: QVQLKESGPGQVAPSQSLSIACTVSGFSLSSYGVHWVRQPPGKGLEWLGVIWAGGSTNYDSALMSRLTISKDNSRTRVFLKMNSLQTDDTAIYYCARSLYGNSLDSWGPGTTLTVSS
VL: DIVMTQSPSSLTVTAGEKVTMSCKSSQSLLNSGNQRNYLTWYQQKPGQPPRLLIYWSSTRDSGVPDRFTGSGSRTDFTLTISSVQAEDLAVYYCQNNFIYPLTFGAGTKLELK
Fluorescence, pHAb internalization on MKN45-CLDN18.2 cells, 20 nM antibody, normalized by DAR: 15200
Fluorescence, pHAb internalization on MKN45-CLDN18.2 cells, 100 nM antibody, normalized by DAR: 44400
